Experimental data published in publication PMC3775092.

Target: KillerRed
Assay: SEC

For KillerRed, the stoichiometry N was 2.
